Reference: paper PMC6508567, “Noncanonical interactions between serpin and β‐amylase in barley grain improve β‐amylase activity in vitro” (Plant Direct, 2018)

Target: the molecule itself
Test: cross-linking; purified proteins in PBS oxidised with 5, 10 and 20 μM CuCl2 for 10 min (disulfide bonds), non-reducing 10% SDS-PAGE, immunoblot; β-amylase alone or mixed with serpin Z4 at 1:2 and 1:5

B1: serpin Z4 (natural protein, barley (Hordeum vulgare) cv. Harrington, UniProt P06293 1-399, looked up)
chain: MATTLATDVRLSIAHQTRFALRLRSAISSNPERAAGNVAFSPLSLHVALSLITAGAAATRDQLVAILGDGGAGDAKELNALAEQVVQFVLANESSTGGPRIAFANGIFVDASLSLKPSFEELAVCQYKAKTQSVDFQHKTLEAVGQVNSWVEQVTTGLIKQILPPGSVDNTTKLILGNALYFKGAWDQKFDESNTKCDSFHLLDGSSIQTQFMSSTKKQYISSSDNLKVLKLPYAKGHDKRQFSMYILLPGAQDGLWSLAKRLSTEPEFIENHIPKQTVEVGRFQLPKFKISYQFEASSLLRALGLQLPFSEEADLSEMVDSSQGLEISHVFHKSFVEVNEEGTEAGAATVAMGVAMSMPLKVDLVDFVANHPFLFLIREDIAGVVVFVGHVTNPLISA
notes: serpin Z4 of barley (Hordeum vulgare) cv; Harrington, cloned from cDNA into pET28-(a); In one direction of the MST experiment the protein carried an NHS-ester fluorescent dye; in one direction of the SPR experiment it was amine-coupled to a CM5 chip; source: E. coli SHuffle cells, purified (Ni-NTA, gel filtration on Superdex 200 Increase)
- binding result: binds
